# B1: Hammerhead Ribozyme (parent)
# chain: ACCGGAUGUGCUUUCCGGUCUGAUGAGUCCGUGAGGACGAAACAG
# Variants of: B1
# Test: self-cleavage, relative activity (ratio to wild type); higher = more cleavage; co-transcriptional
row,Variant,self-cleavage
1,G33C G45A,0.873
2,G27U G35C,0.407
3,C15G C20A,0.361
4,U12G A37C,0.88
5,C15U C16U,0.776
6,C11G G18C,0.426
7,G39C A42G,0.279
8,C43A A44C,0.474
9,G17U U28G,0.513
10,U19A U24A,0.465
11,C2A U7G,0.518
12,G36C G39A,0.29
13,U12G G27C,0.433
14,C16U A40U,0.301
15,A23C A40U,0.243
16,A23C A40G,0.351
17,U19A A44G,0.512
18,G31C A42U,0.373
19,A26U C29A,0.311
20,G17U C30U,0.755
21,G8C C15G,0.469
22,U24A C43U,0.518
23,C11A,1.12
24,G8A C38A,0.56

row,Variant,self-cleavage
1,G17A U32G,0.613
2,C2U A6U,0.865
3,C11U U14A,0.998
4,U28A C38U,0.703
5,U9G G17U,0.316
6,G4C C11G,0.767
7,C3A A6C,0.335
8,C16G G25A,0.357
9,G8A G18A,0.664
10,C3U C16U,0.955
11,G10U C30U,1.07
12,C15U G36A,0.734
13,C15G U24A,0.717
14,U21A C43U,0.398
15,G36U C43G,0.325
16,G4C U12G,0.599
17,U14C A42G,0.249
18,G39C A40C,0.306
19,G35C A41U,0.356
20,U14C G35A,0.565
21,U24A A41G,0.473
22,U24G A26U,0.718
23,U9G U21C,0.414
24,C30U U32G,1.17

row,Variant,self-cleavage
1,G18A C38A,0.596
2,C30G G31A,0.806
3,G17A C38A,0.488
4,G5U G33C,0.813
5,U12C A40C,0.531
6,C16G A23U,0.295
7,U9G A42G,0.323
8,A26C A37G,0.671
9,U24G A34G,0.902
10,A26U C43G,0.415
11,G17A G27U,0.495
12,U32G A37G,0.448
13,A37G A44U,0.595
14,G17A U19G,0.332
15,U13C A44C,0.491
16,C3G U19G,0.306
17,U21C G33U,0.795
18,A1C U21C,0.293
19,C38A A44G,0.862
20,C16U U28A,0.576
21,G4U G18A,0.297
22,A6U U9A,0.617
23,C2A U14A,0.509
24,U24A A44C,0.46

row,Variant,self-cleavage
1,A1C,0.466
2,U7A U28A,0.77
3,C3G G5A,0.57
4,A6G A44U,0.483
5,A23U A26C,0.379
6,A6G A23G,0.272
7,U7A A37U,0.497
8,U28G G31A,0.85
9,G22C A23U,0.351
10,C20A C38A,0.292
11,A23G C30U,0.485
12,A23G C30A,0.305
13,C3A A41U,0.259
14,A37U C38A,0.693
15,U21A C29A,0.31
16,U28A G31C,0.919
17,C11G A23U,0.41
18,U13G A41U,0.272
19,U13C A40C,0.725
20,G25A U28C,0.355
21,C2U G25A,0.386
22,U14G A23C,0.36
23,U14G U24G,0.575
24,A6U A26G,0.291

row,Variant,self-cleavage
1,U21A A41G,0.401
2,A1C G22A,0.396
3,A1U C30G,0.414
4,U21C G31U,0.83
5,A6C U7A,0.311
6,A23G C38G,0.311
7,G22U A40C,0.368
8,U24A G25C,0.366
9,G33C C38U,1.12
10,C29A A37C,0.755
11,U13A G33C,1.25
12,C2A A44U,0.375
13,G4A G25U,0.316
14,A1U G25C,0.357
15,G17C C30G,0.398
16,C20G A26G,0.302
17,G18U A42C,0.371
18,U12G A23C,0.459
19,U28G G35C,0.562
20,U14G U19C,0.715
21,G35C C38G,0.376
22,C15G G25A,0.348
23,C2G G8A,0.385
24,G5U C15U,1.17

row,Variant,self-cleavage
1,U28C G45C,0.406
2,G33A G45U,0.955
3,G17U A23U,0.35
4,A23C G45C,0.376
5,G10A A34G,0.836
6,A26G G39A,0.368
7,G35U C38A,0.404
8,A6C G39U,0.271
9,U9G A40G,0.366
10,U19A C38U,0.358
11,G27U G39U,0.297
12,G27U G39C,0.314
13,G31C A41G,0.374
14,A1U U19A,1.1
15,U28A G39U,0.301
16,C2G G18A,0.459
17,A1U C20U,0.333
18,A41U A42U,0.244
19,A6C U14A,0.536
20,U14G C15A,0.659
21,G17U A42G,0.333
22,G17U A42U,0.369
23,C3A A37U,0.388
24,U32G A42G,0.357

row,Variant,self-cleavage
1,G31C A40U,0.367
2,G10U G25U,0.314
3,G27A G36C,0.316
4,C16G A40U,0.321
5,U7A A41C,0.407
6,G4C U13A,1.04
7,G22C C38U,0.315
8,U24G C30A,0.626
9,G8C C30A,0.708
10,U7A U24C,0.976
11,U13A G18A,1.17
12,C30A A37C,0.428
13,A1G A37G,1.23
14,U24G G35A,1.03
15,U24C G25C,0.324
16,U21C A44G,0.852
17,U28G A41U,0.338
18,A34C G36U,0.437
19,A34C G36C,0.419
20,G35U G39C,0.344
21,C15U G33C,0.847
22,U32G G39A,0.362
23,C16G G31U,1.05

# — the RNAGym collection of RNA variant scans (doi:10.7554/elife.80360)
